Reference: patent US9518995B2, “FKBP52-Tau interaction as a novel therapeutical target for treating the neurological disorders involving Tau dysfunction” (Institut National de la Sante et de la Recherche Medicale …, priority 2009, dated 2016)

Legend:
H7C2 cells [1] = assay: FKBP52 induction in H7C2 cells (Western blot); assay type: cell-based, rat; conditions: after 5 days of Dox treatment
Procedure: Generation of H7C2 cells: The cDNA encoding rabbit FKBP52 was inserted into the HindIII and AccI restriction sites of the pTRE2 vector (Clontech) in order to give pTRE2-FKBP52. Transfection of 100 μg of pTR2-FKBP52 and 10 μg of pTK-hygromicin was carried out in a commercially available PC12 Tet-on cell line (Clontech) that expresses the reverse tetracycline controlled transactivator, using Lipofectamine™ (Invitrogen). Stably transfected cells were selected with 100 μg/ml hygromycin and screened individually. Cell culture: PC12 cells and H7C2 cells were grown in DMEM containing 10% (v/v) horse serum and 5% (v/v) FBS (Invitrogen) at 37° C. in 90% […]/10% CO2. The differentiated neuronal phenotype of cells grown on plastic dishes coated with 10 μg/ml poly(L)-lysine (Sigma), was induced by adding nerve growth factors (NGF) (Invitrogen) for 5 days. Primary cultures from cerebral cortex of embryonic day 17rat foetuses were carried out. Dissociated cells were plated (50,000 cells per ml) on glass coverslips coated with poly(L-ornithine) and cultured in a defined medium in 95% O2/5% CO2 at 37° C.

H7C2 cells [2] = assay: Quantitation of neurite outgrowth; assay type: cell-based, rat; conditions: 50 nM NGF and Dox, compared to H7C2 not treated with Dox
Procedure: Cell culture: PC12 cells and H7C2 cells were grown in DMEM containing 10% (v/v) horse serum and 5% (v/v) FBS (Invitrogen) at 37° C. in 90% O2/10% CO2. The differentiated neuronal phenotype of cells grown on plastic dishes coated with 10 μg/ml poly(L)-lysine (Sigma), was induced by adding nerve growth factors (NGF) (Invitrogen) for 5 days. Primary cultures from cerebral cortex of embryonic day 17rat foetuses were carried out. Dissociated cells were plated (50,000 cells per ml) on glass coverslips coated with poly(L-ornithine) and cultured in a defined medium in 95% O2/5% CO2 at 37° C. Quantitation of neurite outgrowth: Random field photographs of PC12 and H7C2 cells, in each of three wells, were analyzed with Neuron J software. The average neurite length was determined by measuring the longest neurites of at least 200 cells randomly selected.

[3] = molecular target: T1, HP-Tau (hyperphosphorylated recombinant hT40) (Homo sapiens, UniProt P10636); assay: Dot blot assay, FKBP52 captured by spotted HP-Tau; assay type: binding; conditions: 2.2 μg HP-Tau spotted; 0.5 μg FKBP52
T1 construct: made in house; host or cells: E. coli; then phosphorylated in vitro with adult rat brain cytosol in the presence of okadaic acid
T1 sequence (P10636 1-441 isoform P10636-8): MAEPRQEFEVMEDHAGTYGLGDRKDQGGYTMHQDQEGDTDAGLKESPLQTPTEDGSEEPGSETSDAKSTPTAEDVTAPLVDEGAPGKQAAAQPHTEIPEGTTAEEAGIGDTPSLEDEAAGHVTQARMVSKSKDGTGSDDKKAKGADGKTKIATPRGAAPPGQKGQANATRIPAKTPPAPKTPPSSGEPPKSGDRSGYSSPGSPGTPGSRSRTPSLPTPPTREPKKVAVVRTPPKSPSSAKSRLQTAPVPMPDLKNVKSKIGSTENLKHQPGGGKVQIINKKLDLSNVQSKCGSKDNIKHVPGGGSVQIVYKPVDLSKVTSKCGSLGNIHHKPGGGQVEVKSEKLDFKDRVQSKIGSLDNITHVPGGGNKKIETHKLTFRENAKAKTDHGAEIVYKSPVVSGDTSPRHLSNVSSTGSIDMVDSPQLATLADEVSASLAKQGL
Procedure: (§1) Phosphorylation and hyperphosphorylation of recombinant Tau: Rat brain extract was used as the source of kinase activity, as described (18). Briefly, recombinant hT40 was incubated with cytosol of adult rat brain, in the presence or absence of okadaic acid, to give HP-Tau (hyperphosphorylated-Tau) and P-Tau (phosphorylated-Tau), respectively.
(§2) Dot blot assay: 100 μl of buffer A containing different amounts of hT40 were applied to a nitrocellulose membrane, blocked with 5% non-fat milk in phosphate-buffered saline (PBS) containing 0.1% Tween 20 (PBS-T) at room temperature, washed with PBS-T and buffer A, followed by 2 h incubation at room temperature with 100 μl of buffer A containing […] recombinant FKBP52. The membranes were washed with buffer IP (50 mM Tris (pH 7.5)/150 mM NaCl/2 mM MgCl2/0.1% Brij97 (Sigma)/10% glycerol/protease inhibitors) and with PBS-T. After blocking with milk in PBS-T, the membranes were incubated with anti-FKBP52 761 antibody. […] Quantitation was performed with Quantity-one software using Chemidoc XRS fitted with a 16 bit CCD camera (Biorad).

[4] = molecular target: T2, P-Tau (phosphorylated recombinant hT40) (Homo sapiens, UniProt P10636); assay: Dot blot assay, FKBP52 captured by spotted P-Tau; assay type: binding; conditions: same amount (2.2 μg) P-Tau as bait; 0.5 μg FKBP52
T2 construct: made in house; host or cells: E. coli; then phosphorylated in vitro with adult rat brain cytosol without okadaic acid
T2 sequence (P10636 1-441 isoform P10636-8): as above
Procedure: as §1, §2

[5] = molecular target: T3, recombinant Tau protein (longest isoform) (Homo sapiens, UniProt P10636); assay: Sedimentation assay of Tau polymerization in oxidative conditions; assay type: biochemical; conditions: Tau 0.5 mg/ml
T3 construct: made in house
T3 sequence (P10636 1-441 isoform P10636-8): as above
Procedure: To investigate the effect of FKBP52 on Tau oligomerization we monitored by sedimentation assay the ability of recombinant Tau protein (here using the longest isoform) to polymerise in oxidative conditions in presence or absence of recombinant FKBP52. After dialysis of Tau (0.5 mg/ml) overnight at 4° C. in Tris 10 mM pH7.4 and centrifugation at 14000 rpm, quantitative western blotting was used to monitor the polymerization of Tau protein. […] This experiment means that Tau in oxidative conditions self polymerise and confirms, as already reported, the importance of cysteines in first step of Tau oligomerization process (Schweers et al 1995).

recombinant Tau (hT40) = molecular target: T4, recombinant Tau (hT40) (Homo sapiens, UniProt P10636); assay: Dot blot assay, FKBP52 captured by spotted recombinant Tau; assay type: binding
T4 construct: made in house; host or cells: E. coli
T4 sequence (P10636 1-441 isoform P10636-8): as above
Procedure: as §2

[6] = molecular target: T5, tubulin polymerization induced by recombinant human Tau isoforms (Homo sapiens, UniProt P10636); assay: Microtubule assembly assay (tubulin polymerization induced by recombinant Tau isoforms); assay type: biochemical, rat; conditions: tubulin 1 mg/ml, 1.7 μM Tau isoforms, 3.5 μM protein, turbidity at 345 nm
T5 construct: made in house; host or cells: Tau: E. coli; tubulin: adult Sprague-Dawley rat brain
T5 sequence (P10636 2-441 isoform P10636-8): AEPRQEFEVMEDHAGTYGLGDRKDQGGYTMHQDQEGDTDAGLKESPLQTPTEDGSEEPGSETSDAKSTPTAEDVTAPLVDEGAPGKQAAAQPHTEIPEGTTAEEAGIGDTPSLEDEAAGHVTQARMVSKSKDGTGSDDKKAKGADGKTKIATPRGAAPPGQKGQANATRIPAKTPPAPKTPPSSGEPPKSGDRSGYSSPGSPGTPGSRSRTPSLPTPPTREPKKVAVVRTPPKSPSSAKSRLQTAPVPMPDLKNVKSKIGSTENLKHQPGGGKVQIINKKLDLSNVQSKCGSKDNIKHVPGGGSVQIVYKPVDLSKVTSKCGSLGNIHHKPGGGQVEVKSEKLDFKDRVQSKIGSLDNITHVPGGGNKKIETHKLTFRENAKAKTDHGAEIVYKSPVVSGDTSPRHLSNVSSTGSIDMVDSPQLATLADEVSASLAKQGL
Procedure: Preparation of Tubulin and microtubule assembly assay: Male adult Sprague-Dawley rats (body weight ˜250 g) were obtained from Janvier (Le Genest-St.-Isle, France). They were killed by decapitation, according to institutional guidelines, and whole brains were used immediately to prepare tubulin as described (9). Microtubule assembly assays were performed as in (9).
Protein purification and Overexpression of different Tau isoforms and FKBP52 protein: The six isoforms of human brain Tau were expressed in E. coli from clones hT40, hT39, hT37, hT34, hT24, hT23 and purified as described (28). Full length FKBP52 was affinity purified as in (23). For the Tubulin polymerization assay, FKBP52 bound to glutathione-Sepharose beads (GE Healthcare) were cleaved overnight at 4° C. with 2 units of thrombin (GE Healthcare) and dialyzed against buffer L (0.1 M Mes, 1 mM EGTA, 1 mM MgCL2, 0.1 mM EDTA) with 10% glycerol, and complemented before use to 1 mM GTP and 1 mM DTT and 10 μM PPACK (a potent irreversible inhibitor of thrombin) (Biomol).

Row | FKBP52 retained by HP-Tau [3] | FKBP52 captured by P-Tau [4] | Tau polymers in pellet ([5]; FKBP52 at 0.1 or 0.25 mg/ml) | FKBP52 retained by hT40 in the presence of cytosolic proteins (recombinant Tau (hT40); 2.2 μg hT40 with cytosol added just prior to spotting) | FKBP52 retained by hT40 (recombinant Tau (hT40); 2.2 μg non phosphorylated hT40) | retention by spotted Tau (recombinant Tau (hT40); different amounts of hT40 spotted, GST spot as control) | effect on microtubule formation induced by Tau [6] | Molecule | FKBP52 induction (H7C2 cells [1]) | decrease in neurite length (H7C2 cells [2]) | Tau polymers in pellet ([5]; equimolecular or two times quantities of FKBP52 versus Tau) | Tau in pellet fraction ([5]; oxidative medium, equimolecular coincubation)
1 | – | – | – | – | – | – | – | C[C@H]1c2cccc(O)c2C(=O)C2=C(O)[C@]3(O)C(=O)C(C(N)=O)=C(O)[C@@H](N(C)C)[C@@H]3[C@@H](O)[C@@H]21 [Dox, doxycycline] | about 4 fold | 40% | – | –
2 | 73% | 41% | increasing Tau polymers in pellet | 6.6% | 3.5% | retained in a dose dependent manner | formation of microtubules was prevented | FKBP52: purified recombinant full length immunophilin FKBP52 (FK506-Binding Protein), cleaved from GST with thrombin (protein, UniProt Q02790 1-459, looked up, full-length) MTAEEMKATESGAQSAPLPMEGVDISPKQDEGVLKVIKREGTGTEMPMIGDRVFVHYTGWLLDGTKFDSSLDRKDKFSFDLGKGEVIKAWDIAIATMKVGEVCHITCKPEYAYGSAGSPPKIPPNATLVFEVELFEFKGEDLTEEEDGGIIRRIQTRGEGYAKPNEGAIVEVALEGYYKDKLFDQRELRFEIGEGENLDLPYGLERAIQRMEKGEHSIVYLKPSYAFGSVGKEKFQIPPNAELKYELHLKSFEKAKESWEMNSEEKLEQSTIVKERGTVYFKEGKYKQALLQYKKIVSWLEYESSFSNEEAQKAQALRLASHLNLAMCHLKLQAFSAAIESCNKALELDSNNEKGLFRRGEAHLAVNDFELARADFQKVLQLYPNNKAAKTQLAVCQQRIRRQLAREKKLYANMFERLAEEENKAKAEASSGDHPTDTEMKEEQKSNTAGSQSQVETEA | – | – | prevent the presence of pelletable polymers of Tau | no detectable presence of Tau in pellet fraction
